Key:
[1] = Light scattering of microdroplets with enzyme and PET nanoparticles; assay type: biochemical; conditions: 600 nM enzyme co-encapsulated with PET nanoparticles, versus buffer control
Experimental: (A) As described in FIG. 1, for the screening of metagenomic libraries for esterase activity isolated environmental DNA (eDNA) was cloned into plasmids. After the transformation of bacterial cells, single ones were co-encapsulated in microdroplets with lysis agent and the fluorescein dihexanoate substrate. After an off-chip incubation, the droplets were reinjected into the FADS sorting device and positive hits selected. After DNA recovery the re-screening and sequencing lead to a novel esterase showing promiscuous activity on PET. This enzyme was used to generate a sequence network together with known PETases. CI5En2 was identified in of the clusters as a novel PET hydrolase. This enzyme was subjected to a directed evolution campaign. Single bacterial cells were encapsulated in microdroplets together with lysis agent and PET nanoparticles serving as the substrate of the assay. Droplets were incubated in droplet chambers and reinjected into the sorting module. The SADS module relies on fiber optics integrated into a chip at a 90° angle. Schematic picture showing the main principle of the assay. […] The dielectrophoretic sorting of “positive” droplets is triggered when the measured value is within a user-defined threshold. (C) Histogram of the detected light scattering for co-encapsulated CI5En2 (600 nM) or a buffer control and PET nanoparticles. […]

[2] = Enzymatic degradation of PET (nanoparticles, film), HPLC of released TPA and MHET; assay type: biochemical
From the text: (A) Sequence network of currently known PETases and a novel esterase metagenomic-derived, RR11O2. […] Grey nodes represent sequences extracted from MGnify and NCBI. Red node represents RR11O2, blue nodes represent known PETases, green and orange nodes represent reported cutinases and esterases showing PET activity, respectively, and light blue nodes represent described polyester degrading enzymes in the literature. To putatively characterise sequence clusters, the identification of PETases, cutinases, esterases and RR11O2 in the network helped to define the potential clusters. The cluster of RR11O2, CI5En2 and PETase are written in grey. (B) PET hydrolases catalyze the depolymerization of poly(ethylene terephthalate) (PET) to bis(2-hydroxyethyl) terephthalate (BHET), mono(2-hydroxyethyl)-terephthalic (MHET) or terephthalic acid (TPA) and ethylene glycol (EG). During characterizations via high-performance liquid chromatography (HPLC) MHET and TPA have been identified as main products. […] Absorbance at 250 nm was monitored.
(A) Enrichment of variants with higher activity compared to wildtype after sorting the ep-PCR library of CI5En2. […] Amount of the released monomers TPA and MHET was determined via HPLC and corresponding standard curves for TPA and MHET. […]
HPLC analysis of the products released after one week incubation at 30° C. using 6 μM pExp-bla-CI5En2-WT. Absorbance at 250 nm was monitored which detects released TPA and MHET.
To detect the release of TPA, MHET and BHET in the presence of various enzymes, aliquots were taken from reaction mixtures, turnover was stopped by addition of an equal volume of methanol containing 0.5% formic acid, centrifuged (16,100×g, 15 min) and analysed by HPLC (1260 Infinity II, Agilent; Nucleodur C18 analytical EC standard column (5 μm, 4×125 mm, Macherey-Nagel, Germany). As the mobile phase mixtures of buffer A (0.1% formic acid in distilled water) and buffer C (distilled water), as well as buffer D (acetonitrile) were used at a flow rate of 1 mL/min. Buffer A was kept at 20% for the whole run. […]

B1: CI5En2: novel PET hydrolase identified from a sequence network cluster; amino acid SEQ ID NO. 2 (protein)
chain: MADYAKGPAPTVALLTAPAGPYQTATYKIAAADAKAFNYGGATVHYPVAKAPGETFGVVVMVPGFLAFQAVYDWLVSRVASHGFVVVNMDTVGRGDYPDERAEQAAGALRHVVSLAQAGTAPYAPVADTSRRAVMGNSMGGGASLSAAVVDPTLKAVVALQPWHTTKSFTGVASPTLVVACEKDSIAPNKSHSDVFYNSLSAALPRAEIEMRGAGHLCATFLATAAQKTTMAKSSVAWLKRFLDNDMRYDAMVKGGIDQGEFSRFVV
modifications: C15EN2
With B1 as the molecule, how does the “detected light scattering signal of droplets” value [1] read?
Its value is “decreases over time”.

And the “activity against PET nanoparticles with different crystallinity” value ([2]; amorphous and crystalline PET NPs)?
The value was “showed activity”.

What about the “PET degrading activity compared with IsPETase and LCC” value ([2]; at 30° C.) of the same molecule?
The value was “activity comparable to IsPETase and higher than LCC”.
